Experiment [1] has as its target T1, human CD303 antigen expressed on cells (human, UniProt Q8WTT0 1-213).
T1 sequence: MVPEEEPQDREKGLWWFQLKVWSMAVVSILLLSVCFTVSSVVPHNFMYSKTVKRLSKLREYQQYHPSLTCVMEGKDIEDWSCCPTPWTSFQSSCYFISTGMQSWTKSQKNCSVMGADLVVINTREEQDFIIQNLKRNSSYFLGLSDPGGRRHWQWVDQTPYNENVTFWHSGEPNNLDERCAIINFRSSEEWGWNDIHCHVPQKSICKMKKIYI
The experiment in a line: cell-based or functional assay.

Experiment [2] concerns the target T1, human CD303 antigen expressed on cells. The experiment in a line: flow cytometry on CAL-1 cells, 0.1 µg/mL, supernatant. The protocol:
The line used to carry out this technique, CAL-1, is a leukemic cell line of plasmacytoid dendritic cells obtained from a BPDCN patient. The antibodies produced were tested in supernatant, but also in forms purified by affinity chromatography with protein A-sepharose (not elaborated upon herein).
For cell staining, the cells and the antibodies are prediluted with PBS/1% FCS. In a 100 μL reaction volume, 1·10⁵ cells are incubated at 4° C. for 30 minutes with the anti-CD303 antibodies to be tested, at two concentrations: 0.1 μg/mL or 1 μg/mL. This incubation is followed with several washings. The cell/antibody complexes thus formed are then contacted for 30 minutes at 4° C. with the secondary antibody diluted 1:50, an anti-human IgG Fc F(ab′)₂ coupled to a fluorochrome, phycoerythrin. […] Various negative controls are used to eliminate possible nonspecific binding, such as: the cells alone or directly in contact with the secondary antibody, or replacing the antibody tested with an irrelevant chimeric antibody (factor VIII anti-idiotype).

For experiment [3], the target named is T2, FcγRIIIa (CD16a) (UniProt P08637 17-254, limits assumed). Kind of experiment: cell-based or functional assay.
T2 sequence (P08637 17-254 limits assumed): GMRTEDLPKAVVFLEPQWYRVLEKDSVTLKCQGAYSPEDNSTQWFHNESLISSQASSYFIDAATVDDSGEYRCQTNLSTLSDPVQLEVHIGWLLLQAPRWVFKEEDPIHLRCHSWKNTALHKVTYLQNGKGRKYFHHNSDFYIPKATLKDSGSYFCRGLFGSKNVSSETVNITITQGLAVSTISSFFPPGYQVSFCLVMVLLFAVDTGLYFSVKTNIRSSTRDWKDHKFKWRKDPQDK
In experiment [4] the target is T1, human CD303 antigen expressed on cells. The experiment in a line: flow cytometry on Fcγ chain-CD303 Jurkat cells. The procedure: (§1) The CD303-expressing cells and the antibodies are prepared in diluent (PBS+1% FCS). 1·10⁵ cells are incubated at 4° C. for 30 minutes with 100 μL of antibody (anti-CD303 or negative control) at various concentrations (0-40 μg/mL, final concentration).
(§2) After washing with the diluent, the antibodies are visualized by addition of a phycoerythrin (PE)-coupled goat anti-mouse IgG F(ab′)₂ fragment (100 μL diluted to 1:100 in the diluent) for 45 minutes at 4° C. The cells are then washed and analyzed by flow cytometry (FC500, Beckman Coulter).
In general terms: Flow cytometry measures light scatter and fluorescence of single cells or particles in a stream.

Experiment [5] shares this target. The experiment in a line: flow cytometry on CAL-1 cells. The protocol: as §1, §2
The target is the same in experiment [6]. Kind of experiment: cell-based or functional assay. The source holds these as a separate data set.
Experiment [7] has as its target T2, FcγRIIIa (CD16a). The experiment in a line: competition with 3G8-PE for CD16 on NK cells, flow cytometry.
The next experiment addresses T3, CD303 ectodomain (human, UniProt Q8WTT0 45-213).
T3 construct: also called ectodomain of the human CD303 antigen
T3 sequence: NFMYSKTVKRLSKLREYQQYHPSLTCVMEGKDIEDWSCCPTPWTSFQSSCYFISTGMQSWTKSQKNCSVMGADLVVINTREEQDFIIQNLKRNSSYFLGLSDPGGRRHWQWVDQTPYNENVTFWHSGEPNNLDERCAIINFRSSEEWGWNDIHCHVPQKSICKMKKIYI
Kind of experiment: ELISA on coated CD303 ectodomain, 5 ng/mL antibody. The procedure: This technique, which uses a colorimetric approach, makes it possible to detect and visualize antigen-antibody interactions. The principle of ELISA is, first, to coat each well of a MaxiSorp plate with 10 ng of the antigen, in this case the CD303 ectodomain. The latter was purchased from the supplier Mybiosource. Second, the various antibodies produced, contained in the supernatant, are all diluted to the same concentration, and contacted with the antigen to allow them to bind. A third step consists in adding the secondary antibodies, HRP-conjugated anti-human antibody, necessary for amplified detection of the antigen-binding of the anti-CD303 antibodies. Lastly, detection is carried out using a solution containing the substrate for the enzyme (3,3′,5,5′-tetramethylbenzidine, or TMB). The appearance of coloring of the substrate indicates the formation of the antigen-antibody complex. The intensity of this coloring is proportional to the amount of enzyme present and thus to the amount of antibody tested bound to the antigen. The reaction is stopped by adding H₂SO₄ (acid). These colors are read using a spectrophotometer at a wavelength of 450 nm.
A concentration of 5 ng/mL is used to classify the humanized antibodies (FIG. 10).
Background: In an ELISA, binding on a coated surface is turned into a signal by an enzyme label.

Substitutions are numbered along the chain they refer to.

B1: humanized antibody 122A2H5 (antibody, human IgG1, kappa)
heavy: not shown
light: DIQMTQSTSSLSASLGDRVTITCQASQDISNYLNWYQQKPDGTVKLLIYYTSRLHTGVPSRFSGSGSGTDYSLTISNLDQEDIATYYCQQGNTLPWTFGGGTKLEIKRTVAAPSVFIFPPSDEQLKSGTASVVCLLNNFYPREAKVQWKVDNALQSGNSQESVTEQDSKDSTYSLSSTLTLSKADYEKHKVYACEVTHQGLSSPVTKSFNRGEC
As for B1, the “IC50 for IFN-α secretion from pDCs contained in PBMCs” value (from here on “IC50 for IFN-α secretion”) in experiment [1] was 0.819 ng/mL.

B2: humanized antibody 122A2H7 (antibody, human IgG1, kappa, V domains shown)
VH: QVQLQQSGAEVVKPGASVKISCKGSGYTFTDYSMHWVRQAPGQGLEWIGVISTYYGDSNYNQKFKGKVTMTVDKSSSTAYMELSRLTSDDTAVYYCARNGNFYVMDYWGQGTLVTVSS
VL: DIQMTQSTSSLSASLGDRVTITCQASQDISNYLNWYQQKPDGTVKLLIYYTSRLHTGVPSRFSGSGSGTDYSLTISNLDQEDIATYYCQQGNTLPWTFGGGTKLEIKR
As for B2, the “IC50 for IFN-α secretion” value in experiment [1] turned out to be 0.865 ng/mL.

B3: humanized antibody 122A2H15 (antibody, human IgG1, kappa, V domains shown)
VH: B2 VH
VL: B2 VL with R53N, D79Q
Regarding B3, the binding result in experiment [2] is “binds”.

B4: humanized antibody 122A2H10 (antibody, human IgG1, kappa, V domains shown)
VH: B2 VH with P41H, G42A, Q43K, G44S, K74T, T87R
VL: B2 VL with T8P, L15V
On to B4, for which, in experiment [1], the “IC50 for IFN-α secretion” value came out at 0.947 ng/mL.

B5: humanized antibody 122A2H14 (antibody, human IgG1, kappa, V domains shown)
VH: B2 VH with P41H, G42A, Q43K, G44S, K74T, T87R
VL: B2 VL with R53N, D79Q
With B5, the binding result in experiment [2] was “binds”.

B6: humanized antibody 122A2H9 (antibody, human IgG1, kappa)
heavy: not shown
light: B1 light with T8P, L15V
Turning to B6, in the experiment with FcγRIIIa (CD16a) [3], the “IL-2 secretion by CD16 Jurkat cells: 50%, with ch122A2 = 1 (Mean)” value is 0.73 ratio to ch122A2; the “IL-2 secretion by CD16 Jurkat cells: 50%, with ch122A2 = 1 (experiment 2126 16 057)” value was 0.66 ratio to ch122A2; the “IL-2 secretion by CD16 Jurkat cells: 50%, with ch122A2 = 1 (experiment 2126 16 059)” value was 0.78 ratio to ch122A2; the “IL-2 secretion by CD16 Jurkat cells: 50%, with ch122A2 = 1 (experiment 2126 16 066)” value is 0.74 ratio to ch122A2. Further, the “IC50 for IFN-α secretion” value in experiment [1] turned out to be 0.911 ng/mL.

B7: chimeric antibody 104E10 (antibody, human IgG1, kappa)
heavy: not shown
light: QIVLTQSPAIMSASPGEKVTMTCSASSSVIYMHWFQQKPGTSPKLWIYSTSNLASGVPARFSGSGSGTSYSLTISRMEAEDAATYYCQQRRSYPYTFGGGTKLEIKRTVAAPSVFIFPPSDEQLKSGTASVVCLLNNFYPREAKVQWKVDNALQSGNSQESVTEQDSKDSTYSLSSTLTLSKADYEKHKVYACEVTHQGLSSPVTKSFNRGEC
notes: Produced in YB2/0
One may read the EC50 as the concentration giving half of the maximal effect. A lower EC50 goes with an effect from little substance. What is called IC50 is the midpoint of a concentration-inhibition curve. Read a high IC50 as weaker potency in that assay. B7: in experiment [4], the “Bmax (MFI)” value worked out at 23.7 MFI and the EC50 turned out to be 6.06 µg/mL. In addition, in experiment [5], the “Bmax (MFI)” value amounted to 29.2 MFI and the EC50 worked out at 1.93 µg/mL. In experiment [6], the “ADCC EC50, Fcγ chain-CD303 Jurkat target cells with NK cells” value (“ADCC EC50” for short) is 0.00828 µg/mL and the “ADCC Emax (% lysis), Fcγ chain-CD303 Jurkat target cells with NK cells” value (“ADCC Emax (% lysis)” below) was determined as 40.5 % lysis. Moreover, in the experiment with FcγRIIIa (CD16a) [7], the half-inhibitory concentration (IC50) is 18.1 µg/mL.

B8: chimeric antibody 114D11 (antibody, human IgG1, kappa)
heavy: not shown
light: B7 light with M21I, I30F
notes: Produced in YB2/0
As for B8, in experiment [4], the “Bmax (MFI)” value was determined as 24.7 MFI and a half-maximal effect (EC50) was put at 3.98 µg/mL. Besides, in experiment [5], the “Bmax (MFI)” value came out at 30.1 MFI and the 50% effective concentration (EC50) came out at 1.7 µg/mL. For the same molecule, in experiment [6], the “ADCC EC50” value is 0.00361 µg/mL and the “ADCC Emax (% lysis)” value is 37.4 % lysis. The IC50 with FcγRIIIa (CD16a) [7] came out at 45 µg/mL.

B9: humanized antibody 102E9H10 (antibody, human IgG1, kappa, V domains shown)
VH: QIHLVQSGPELKKPGESVKISCKASGYTFTDYSMHWVRQAPGQGLKWMGWINTETGEPTYAQDFKGRFVFSLDTSVSTAYLQINSLKNEDTSTYYCTRNGYYVGYYAMDYWGQGTSVTVSS
VL: QIQLTQSPSFLSASPGERVTITCSASSSVIYIHWFQQKPGTAPKLWIYSTSYLASGVPSRFSGSGSGTSYTLTISRMEAEDFATYYCQQRRSYPFTFGGGTKLEIKR
In the case of B9, the “CD303 ectodomain-binding capacity relative to chimeric antibody 102E9” value with CD303 ectodomain came out at 80%.

B10: humanized antibody 102E9H9 (antibody, human IgG1, kappa, V domains shown)
VH: B9 VH with R38K, Q62D
VL: B9 VL
Take B10: the “CD303 ectodomain-binding capacity relative to chimeric antibody 102E9” value with CD303 ectodomain worked out at 71%.

B11: humanized antibody 102E9H7 (antibody, human IgG1, kappa)
heavy: not shown
light: QIQLTQSPSFLSASPGERVTITCSASSSVIYIHWFQQKPGKAPKLWIYSTSYLASGVPSRFSGSGSGTEYTLTISSMEAEDFATYYCQQRRSYPFTFGGGTKLEIKRTVAAPSVFIFPPSDEQLKSGTASVVCLLNNFYPREAKVQWKVDNALQSGNSQESVTEQDSKDSTYSLSSTLTLSKADYEKHKVYACEVTHQGLSSPVTKSFNRGEC
As to B11, the “CD303 ectodomain-binding capacity relative to chimeric antibody 102E9” value in the experiment with CD303 ectodomain was 76%.

B12: humanized antibody 102E9H6 (antibody, human IgG1, kappa)
heavy: not shown
light: B11 light
With B12, in the experiment with CD303 ectodomain, the “CD303 ectodomain-binding capacity relative to chimeric antibody 102E9” value turned out to be 73%.

B13: chimeric antibody 104C12 (antibody, human IgG1, kappa)
heavy: not shown
light: DLQMTQTPSSLSASLGDRVTISCRASQDINNYLSWYQEKPDGTFKLLIYYTSRLHSGVPSRFSGSGSGTDYSLTVRNLEQEDIGTYFCQQGKTLPWTFGGGTKLEIRRTVAAPSVFIFPPSDEQLKSGTASVVCLLNNFYPREAKVQWKVDNALQSGNSQESVTEQDSKDSTYSLSSTLTLSKADYEKHKVYACEVTHQGLSSPVTKSFNRGEC
notes: Produced in YB2/0
Regarding B13, in experiment [4], the “Bmax (MFI)” value came to 27.7 MFI and the midpoint of the response, the EC50, lay at 0.178 µg/mL. In experiment [5], the “Bmax (MFI)” value was 29 MFI and a half-maximal response (EC50) required 0.345 µg/mL. In experiment [6], the “ADCC EC50” value was 0.000214 µg/mL and the “ADCC Emax (% lysis)” value was found to be 41.8 % lysis. In the experiment with FcγRIIIa (CD16a) [7], this molecule displayed an IC50 of 26.8 µg/mL.
